Laboratory results as given in IntAct's records for PubMed 31515488.

B1: Alpha-ketoglutarate-dependent dioxygenase alkB homolog 3 (Homo sapiens), Q96Q83 (parent)
chain: MEEKRRRARVQGAWAAPVKSQAIAQPATTAKSHLHQKPGQTWKNKEHHLSDREFVFKEPQQVVRRAPEPRVIDREGVYEISLSPTGVSRVCLYPGFVDVKEADWILEQLCQDVPWKQRTGIREDITYQQPRLTAWYGELPYTYSRITMEPNPHWHPVLRTLKNRIEENTGHTFNSLLCNLYRNEKDSVDWHSDDEPSLGRCPIIASLSFGATRTFEMRKKPPPEENGDYTYVERVKIPLDHGTLLIMEGATQADWQHRVPKEYHSREPRVNLTFRTVYPDPRGAPW
partner: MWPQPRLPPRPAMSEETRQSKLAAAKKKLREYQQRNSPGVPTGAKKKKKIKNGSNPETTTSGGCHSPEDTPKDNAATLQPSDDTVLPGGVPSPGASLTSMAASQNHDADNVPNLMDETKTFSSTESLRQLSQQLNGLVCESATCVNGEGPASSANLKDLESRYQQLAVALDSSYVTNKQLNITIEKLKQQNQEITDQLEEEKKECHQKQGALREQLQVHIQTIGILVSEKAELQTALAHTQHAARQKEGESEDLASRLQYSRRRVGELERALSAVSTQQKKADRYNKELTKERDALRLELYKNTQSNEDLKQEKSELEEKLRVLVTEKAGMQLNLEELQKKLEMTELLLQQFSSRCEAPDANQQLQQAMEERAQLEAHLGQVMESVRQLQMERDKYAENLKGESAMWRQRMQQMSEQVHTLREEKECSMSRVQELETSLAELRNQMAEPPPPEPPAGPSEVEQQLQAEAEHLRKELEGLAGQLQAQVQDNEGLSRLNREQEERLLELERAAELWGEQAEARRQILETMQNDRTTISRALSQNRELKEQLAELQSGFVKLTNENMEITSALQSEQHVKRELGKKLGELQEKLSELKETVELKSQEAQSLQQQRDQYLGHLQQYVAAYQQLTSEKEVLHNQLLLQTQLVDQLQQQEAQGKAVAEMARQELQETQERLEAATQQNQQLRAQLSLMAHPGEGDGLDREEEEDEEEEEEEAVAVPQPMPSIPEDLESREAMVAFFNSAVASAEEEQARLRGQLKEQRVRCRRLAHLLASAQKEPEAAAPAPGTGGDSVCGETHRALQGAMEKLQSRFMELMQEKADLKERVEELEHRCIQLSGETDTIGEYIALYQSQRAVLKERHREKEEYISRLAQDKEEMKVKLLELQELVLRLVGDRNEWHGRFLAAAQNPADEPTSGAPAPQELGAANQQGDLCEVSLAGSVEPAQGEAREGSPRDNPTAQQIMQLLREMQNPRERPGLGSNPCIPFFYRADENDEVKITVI
B2: Dynein light chain 2, cytoplasmic (Homo sapiens), Q96FJ2 (parent)
chain: MSDRKAVIKNADMSEDMQQDAVDCATQAMEKYNIEKDIAAYIKKEFDKKYNPTWHCIVGRNFGSYVTHETKHFIYFYLGQVAILLFKSG
partner: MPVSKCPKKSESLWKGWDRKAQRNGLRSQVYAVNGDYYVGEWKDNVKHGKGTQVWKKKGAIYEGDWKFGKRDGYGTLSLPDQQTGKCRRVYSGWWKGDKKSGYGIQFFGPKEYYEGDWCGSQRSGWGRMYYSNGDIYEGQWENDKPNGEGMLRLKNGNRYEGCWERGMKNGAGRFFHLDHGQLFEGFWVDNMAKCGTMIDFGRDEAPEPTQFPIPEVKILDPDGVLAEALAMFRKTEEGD
B3: Neurogenin-3 (Homo sapiens), Q9Y4Z2 (parent)
chain: MTPQPSGAPTVQVTRETERSFPRASEDEVTCPTSAPPSPTRTRGNCAEAEEGGCRGAPRKLRARRGGRSRPKSELALSKQRRSRRKKANDRERNRMHNLNSALDALRGVLPTFPDDAKLTKIETLRFAHNYIWALTQTLRIADHSLYALEPPAPHCGELGSPGGSPGDWGSLYSPVSQAGSLSPAASLEERPGLLGATFSACLSPGSLAFSDFL
B4: Methylthioribulose-1-phosphate dehydratase (Homo sapiens), Q96GX9 (parent)
chain: MSGCDAREGDCCSRRCGAQDKEHPRYLIPELCKQFYHLGWVTGTGGGISLKHGDEIYIAPSGVQKERIQPEDMFVCDINEKDISGPSPSKKLKKSQCTPLFMNAYTMRGAGAVIHTHSKAAVMATLLFPGREFKITHQEMIKGIKKCTSGGYYRYDDMLVVPIIENTPEEKDLKDRMAHAMNEYPDSCAVLVRRHGVYVWGETWEKAKTMCECYDYLFDIAVSMKKVGLDPSQLPVGENGIV
partner: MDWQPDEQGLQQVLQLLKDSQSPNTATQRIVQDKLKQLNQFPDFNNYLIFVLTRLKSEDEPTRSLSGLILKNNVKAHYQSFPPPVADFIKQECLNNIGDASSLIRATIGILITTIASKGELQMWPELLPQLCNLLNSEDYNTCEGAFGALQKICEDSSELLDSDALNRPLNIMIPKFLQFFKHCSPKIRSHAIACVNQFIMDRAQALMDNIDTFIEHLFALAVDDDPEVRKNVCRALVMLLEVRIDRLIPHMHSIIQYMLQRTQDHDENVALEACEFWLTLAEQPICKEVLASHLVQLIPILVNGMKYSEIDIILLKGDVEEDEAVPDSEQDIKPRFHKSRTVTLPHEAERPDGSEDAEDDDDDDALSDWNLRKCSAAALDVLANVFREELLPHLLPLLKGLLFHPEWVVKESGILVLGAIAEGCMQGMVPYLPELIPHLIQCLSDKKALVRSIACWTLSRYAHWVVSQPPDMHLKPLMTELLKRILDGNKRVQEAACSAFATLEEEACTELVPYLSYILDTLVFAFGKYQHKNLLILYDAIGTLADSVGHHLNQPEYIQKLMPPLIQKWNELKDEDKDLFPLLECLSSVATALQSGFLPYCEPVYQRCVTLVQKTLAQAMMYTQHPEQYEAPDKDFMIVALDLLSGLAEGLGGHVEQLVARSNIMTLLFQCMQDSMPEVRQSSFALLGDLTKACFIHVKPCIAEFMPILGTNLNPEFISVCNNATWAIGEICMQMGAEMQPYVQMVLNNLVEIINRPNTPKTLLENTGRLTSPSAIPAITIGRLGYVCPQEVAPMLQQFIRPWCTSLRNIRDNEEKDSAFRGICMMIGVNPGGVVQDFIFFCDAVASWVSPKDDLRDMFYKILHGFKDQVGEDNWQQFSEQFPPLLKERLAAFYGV
B5: Zinc finger protein 165 (Homo sapiens), P49910 (parent)
chain: MATEPKKAAAQNSPEDEGLLIVKIEEEEFIHGQDTCLQRSELLKQELCRQLFRQFCYQDSPGPREALSRLRELCCQWLKPEIHTKEQILELLVLEQFLTILPGDLQAWVHEHYPESGEEAVTILEDLERGTDEAVLQVQAHEHGQEIFQKKVSPPGPALNVKLQPVETKAHFDSSEPQLLWDCDNESENSRSMPKLEIFEKIESQRIISGRISGYISEASGESQDICKSAGRVKRQWEKESGESQRLSSAQDEGFGKILTHKNTVRGEIISHDGCERRLNLNSNEFTHQKSCKHGTCDQSFKWNSDFINHQIIYAGEKNHQYGKSFKSPKLAKHAAVFSGDKTHQCNECGKAFRHSSKLARHQRIHTGERCYECNECGKSFAESSDLTRHRRIHTGERPFGCKECGRAFNLNSHLIRHQRIHTREKPYECSECGKTFRVSSHLIRHFRIHTGEKPYECSECGRAFSQSSNLSQHQRIHMRENLLM

Variants of: B1
Details: with goga2_human GOLGA2, Q08379

Variant	effect of a mutation on the interaction
G39C	with no effect

Variants of: B2
Details: with morn3_human MORN3, Q6PF18

Variant	effect of a mutation on the interaction
N33S	with no effect

Variants of: B3
Details: with htf4_human TCF12, Q99081
Sequence of htf4_human TCF12, Q99081 (Q99081 whole entry): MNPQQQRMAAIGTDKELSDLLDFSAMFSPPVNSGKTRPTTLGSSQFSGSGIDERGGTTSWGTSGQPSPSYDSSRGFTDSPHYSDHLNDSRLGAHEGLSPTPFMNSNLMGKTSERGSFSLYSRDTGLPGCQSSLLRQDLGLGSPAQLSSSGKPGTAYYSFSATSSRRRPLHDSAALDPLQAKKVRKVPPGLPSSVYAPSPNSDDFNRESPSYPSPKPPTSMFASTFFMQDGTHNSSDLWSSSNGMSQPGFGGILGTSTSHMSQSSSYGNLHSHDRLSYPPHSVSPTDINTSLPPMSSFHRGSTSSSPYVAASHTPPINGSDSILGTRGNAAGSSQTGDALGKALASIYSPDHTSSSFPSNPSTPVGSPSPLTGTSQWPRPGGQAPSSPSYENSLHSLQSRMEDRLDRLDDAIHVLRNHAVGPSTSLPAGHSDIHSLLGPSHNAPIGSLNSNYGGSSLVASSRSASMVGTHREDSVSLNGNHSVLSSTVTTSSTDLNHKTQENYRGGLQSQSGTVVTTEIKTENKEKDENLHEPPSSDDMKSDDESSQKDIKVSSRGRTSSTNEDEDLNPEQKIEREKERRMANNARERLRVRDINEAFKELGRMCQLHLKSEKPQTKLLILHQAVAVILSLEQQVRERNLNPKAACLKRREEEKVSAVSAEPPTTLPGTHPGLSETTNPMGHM

Variant	effect of a mutation on the interaction
F199S	with no effect

Variants of: B4
Details: with tnpo2_human TNPO2, O14787

Variant	effect of a mutation on the interaction
M181V	disrupting interaction strength
G111A	with no effect

Variants of: B5
Details: with kat7_human KAT7, O95251
Sequence of kat7_human KAT7, O95251 (O95251 whole entry): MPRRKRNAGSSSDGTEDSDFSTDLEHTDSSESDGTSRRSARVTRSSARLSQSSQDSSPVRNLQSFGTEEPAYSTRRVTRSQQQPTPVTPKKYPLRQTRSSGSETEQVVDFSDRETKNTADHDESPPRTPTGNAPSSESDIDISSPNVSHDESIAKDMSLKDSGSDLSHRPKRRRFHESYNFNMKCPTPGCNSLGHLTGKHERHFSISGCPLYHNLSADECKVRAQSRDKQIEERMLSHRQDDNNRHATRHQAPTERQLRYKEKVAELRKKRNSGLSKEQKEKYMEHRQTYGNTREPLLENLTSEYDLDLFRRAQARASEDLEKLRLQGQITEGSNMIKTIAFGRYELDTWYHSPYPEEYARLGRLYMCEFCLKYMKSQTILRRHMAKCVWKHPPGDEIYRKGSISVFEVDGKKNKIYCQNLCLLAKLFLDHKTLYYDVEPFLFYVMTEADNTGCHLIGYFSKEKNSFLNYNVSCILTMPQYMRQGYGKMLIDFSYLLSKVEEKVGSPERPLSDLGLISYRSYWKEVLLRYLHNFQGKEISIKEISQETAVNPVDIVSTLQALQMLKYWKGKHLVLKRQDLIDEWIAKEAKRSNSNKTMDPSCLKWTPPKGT

Variant	effect of a mutation on the interaction
N347Y	with no effect
R69C	with no effect

Variants of: B5
Details: with pdli7_human PDLIM7, Q9NR12
Sequence of pdli7_human PDLIM7, Q9NR12 (Q9NR12 whole entry): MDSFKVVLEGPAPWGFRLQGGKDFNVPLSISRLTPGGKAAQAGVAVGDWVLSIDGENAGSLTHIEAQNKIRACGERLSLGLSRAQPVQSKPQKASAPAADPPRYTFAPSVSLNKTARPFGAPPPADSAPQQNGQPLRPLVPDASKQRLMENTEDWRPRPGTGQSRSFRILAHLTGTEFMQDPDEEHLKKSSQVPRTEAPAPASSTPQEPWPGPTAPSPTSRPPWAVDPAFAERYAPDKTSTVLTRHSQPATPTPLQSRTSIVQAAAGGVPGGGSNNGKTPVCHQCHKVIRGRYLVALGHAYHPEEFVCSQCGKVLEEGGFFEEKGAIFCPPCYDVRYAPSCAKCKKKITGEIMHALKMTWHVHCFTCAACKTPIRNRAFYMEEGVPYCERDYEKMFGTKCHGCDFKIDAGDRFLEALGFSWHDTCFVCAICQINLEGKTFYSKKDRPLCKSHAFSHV

Variant	effect of a mutation on the interaction
N347Y	with no effect
R69C	with no effect

Variants of: B5
Details: with trim1_human MID2, Q9UJV3
Sequence of trim1_human MID2, Q9UJV3 (Q9UJV3 whole entry): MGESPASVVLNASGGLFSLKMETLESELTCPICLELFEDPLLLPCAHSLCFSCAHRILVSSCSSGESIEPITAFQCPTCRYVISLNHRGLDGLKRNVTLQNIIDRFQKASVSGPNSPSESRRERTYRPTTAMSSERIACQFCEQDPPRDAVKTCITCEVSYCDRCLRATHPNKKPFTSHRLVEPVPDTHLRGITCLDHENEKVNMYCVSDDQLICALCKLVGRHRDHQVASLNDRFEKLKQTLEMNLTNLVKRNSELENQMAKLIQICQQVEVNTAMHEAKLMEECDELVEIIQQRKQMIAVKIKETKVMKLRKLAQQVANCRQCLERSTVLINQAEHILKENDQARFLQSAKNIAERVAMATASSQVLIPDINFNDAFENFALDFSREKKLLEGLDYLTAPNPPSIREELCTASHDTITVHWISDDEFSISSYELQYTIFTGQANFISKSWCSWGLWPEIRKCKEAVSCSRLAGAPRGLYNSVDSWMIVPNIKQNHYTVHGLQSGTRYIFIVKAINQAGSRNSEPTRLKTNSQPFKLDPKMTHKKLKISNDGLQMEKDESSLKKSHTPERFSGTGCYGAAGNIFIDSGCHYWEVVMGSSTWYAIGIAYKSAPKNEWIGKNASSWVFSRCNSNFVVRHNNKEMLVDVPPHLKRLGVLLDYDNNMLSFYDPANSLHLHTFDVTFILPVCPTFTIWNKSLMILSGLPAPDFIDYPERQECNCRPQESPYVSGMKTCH

Variant	effect of a mutation on the interaction
N347Y	with no effect
R69C	with no effect

Variants of: B5
Details: with zn446_human ZNF446, Q9NWS9
Sequence of zn446_human ZNF446, Q9NWS9 (Q9NWS9 whole entry): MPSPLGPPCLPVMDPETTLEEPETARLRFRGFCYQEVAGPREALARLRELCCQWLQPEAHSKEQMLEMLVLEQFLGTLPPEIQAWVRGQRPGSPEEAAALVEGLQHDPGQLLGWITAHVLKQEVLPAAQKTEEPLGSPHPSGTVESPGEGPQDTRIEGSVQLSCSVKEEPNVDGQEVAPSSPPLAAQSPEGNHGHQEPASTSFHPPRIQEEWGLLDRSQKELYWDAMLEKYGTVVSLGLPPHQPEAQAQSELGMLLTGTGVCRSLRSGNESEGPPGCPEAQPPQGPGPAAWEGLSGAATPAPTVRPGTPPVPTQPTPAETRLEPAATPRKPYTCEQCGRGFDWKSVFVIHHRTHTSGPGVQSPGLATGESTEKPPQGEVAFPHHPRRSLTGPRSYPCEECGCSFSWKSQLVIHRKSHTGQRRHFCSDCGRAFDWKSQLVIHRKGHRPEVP

Variant	effect of a mutation on the interaction
N347Y	with no effect
R69C	with no effect
